# doi:10.1101/2020.11.13.381350 (bioRxiv, 2020)
# B1: EGFP-WT-mVP40 (natural protein)
# chain: MASSSNYNTYMQYLNPPPYADHGANQLIPADQLSNQQGITPNYVGDLNLDDQFKGNVCHAFTLEAIIDISAYNERTVKGVPAWLPLGIMSNFEYPLAHTVAALLTGSYTITQFTHNGQKFVRVNRLGTGIPAHPLRMLREGNQAFIQNMVIPRNFSTNQFTYNLTNLVLSVQKLPDDAWRPSKDKLIGNTMHPAVSIHPNLPPIVLPTVKKQAYRQHKNPNNGPLLAISGILHQLRVEKVPEKTSLFRISLPADMFSVKEGMMKKRGENSPVVYFQAPENFPLNGFNNRQVVLAYANPTLSAV
# Target: the molecule itself
# Assay: SEC
protein,measurement,value
B1,stoichiometry N,6
